Source: article doi:10.1101/2022.06.02.494603

Target: optineurin, C-terminal myc-FLAG-tagged, Q96CV9
Assay: co-IP
Settings: remark: other sources report otherwise

Chain of optineurin, C-terminal myc-FLAG-tagged, Q96CV9 (Q96CV9 whole entry): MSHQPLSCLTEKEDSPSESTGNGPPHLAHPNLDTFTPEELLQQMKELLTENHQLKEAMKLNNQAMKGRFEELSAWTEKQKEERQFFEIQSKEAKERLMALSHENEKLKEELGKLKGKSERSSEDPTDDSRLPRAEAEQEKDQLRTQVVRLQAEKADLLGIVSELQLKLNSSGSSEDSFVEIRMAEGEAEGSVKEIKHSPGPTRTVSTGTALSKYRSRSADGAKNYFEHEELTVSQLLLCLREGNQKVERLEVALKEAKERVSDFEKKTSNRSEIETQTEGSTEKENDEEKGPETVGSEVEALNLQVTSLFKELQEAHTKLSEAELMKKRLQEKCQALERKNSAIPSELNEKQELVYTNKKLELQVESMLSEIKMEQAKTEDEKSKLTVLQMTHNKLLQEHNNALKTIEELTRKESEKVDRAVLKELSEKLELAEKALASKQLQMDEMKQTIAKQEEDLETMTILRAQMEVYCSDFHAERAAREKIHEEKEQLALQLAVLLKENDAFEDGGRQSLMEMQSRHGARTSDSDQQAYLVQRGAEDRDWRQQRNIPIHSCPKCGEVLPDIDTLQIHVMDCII

B1: TBK1 p.E696K, untagged, Q9UHD2 1-729 (natural protein)
chain: MQSTSNHLWLLSDILGQGATANVFRGRHKKTGDLFAIKVFNNISFLRPVDVQMREFEVLKKLNHKNIVKLFAIEEETTTRHKVLIMEFCPCGSLYTVLEEPSNAYGLPESEFLIVLRDVVGGMNHLRENGIVHRDIKPGNIMRVIGEDGQSVYKLTDFGAARELEDDEQFVSLYGTEEYLHPDMYERAVLRKDHQKKYGATVDLWSIGVTFYHAATGSLPFRPFEGPRRNKEVMYKIITGKPSGAISGVQKAENGPIDWSGDMPVSCSLSRGLQVLLTPVLANILEADQEKCWGFDQFFAETSDILHRMVIHVFSLQQMTAHKIYIHSYNTATIFHELVYKQTKIISSNQELIYEGRRLVLEPGRLAQHFPKTTEENPIFVVSREPLNTIGLIYEKISLPKVHPRYDLDGDASMAKAITGVVCYACRIASTLLLYQELMRKGIRWLIELIKDDYNETVHKKTEVVITLDFCIRNIEKTVKVYEKLMKINLEAAELGEISDIHTKLLRLSSSQGTIETSLQDIDSRLSPGGSLADAWAHQEGTHPKDRNVEKLQVLLNCMTEIYYQFKKDKAERRLAYNEEQIHKFDKQKLYYHATKAMTHFTDECVKKYEAFLNKSEEWIRKMLHLRKQLLSLTNQCFDIEEEVSKYQEYTNELQETLPQKMFTASSGIKHTMTPIYPSSNTLVEMTLGMKKLKEKMEGVVKELAENNHILERFGSLTMDGGLRNVDCL
  TBK1 bound to OPTN relative to wild type (relative to TBK1 WT): 0.02

B2: TBK1 G217R, untagged, Q9UHD2 1-729 (natural protein)
chain: MQSTSNHLWLLSDILGQGATANVFRGRHKKTGDLFAIKVFNNISFLRPVDVQMREFEVLKKLNHKNIVKLFAIEEETTTRHKVLIMEFCPCGSLYTVLEEPSNAYGLPESEFLIVLRDVVGGMNHLRENGIVHRDIKPGNIMRVIGEDGQSVYKLTDFGAARELEDDEQFVSLYGTEEYLHPDMYERAVLRKDHQKKYGATVDLWSIGVTFYHAATRSLPFRPFEGPRRNKEVMYKIITGKPSGAISGVQKAENGPIDWSGDMPVSCSLSRGLQVLLTPVLANILEADQEKCWGFDQFFAETSDILHRMVIHVFSLQQMTAHKIYIHSYNTATIFHELVYKQTKIISSNQELIYEGRRLVLEPGRLAQHFPKTTEENPIFVVSREPLNTIGLIYEKISLPKVHPRYDLDGDASMAKAITGVVCYACRIASTLLLYQELMRKGIRWLIELIKDDYNETVHKKTEVVITLDFCIRNIEKTVKVYEKLMKINLEAAELGEISDIHTKLLRLSSSQGTIETSLQDIDSRLSPGGSLADAWAHQEGTHPKDRNVEKLQVLLNCMTEIYYQFKKDKAERRLAYNEEQIHKFDKQKLYYHATKAMTHFTDECVKKYEAFLNKSEEWIRKMLHLRKQLLSLTNQCFDIEEEVSKYQEYTNELQETLPQKMFTASSGIKHTMTPIYPSSNTLVEMTLGMKKLKEEMEGVVKELAENNHILERFGSLTMDGGLRNVDCL
  TBK1 bound to OPTN relative to wild type (relative to TBK1 WT): 0.27
